Values quoted from earlier work in article PMC5368065.

Tests used:
MLL1 (Homo sapiens) = MLL1 (Homo sapiens) (UniProt Q03164)
[1] = molecular target: MLL1 MBM1-MBM2 (Homo sapiens) (UniProt Q03164)

Question: For Menin (from UniProt O00255), which Kd (MLL1 (Homo sapiens)) is on record?
Answer: 10 nM

Question: What about the Kd [1] of the same substance?
Answer: 10 nM
